Assay results reported in article doi:10.1101/329011v1.

Assays:
Settings in all cases: La3+ as metal cofactor; PQQ enzyme; artificial electron acceptor PMS/DCPIP
purified protein = substrate: C=O; test: purified protein
[1] = substrate: CO; test: PMS-mediated DCPIP reduction, Michaelis-Menten fit; format: biochemical, Methylorubrum extorquens
[2] = substrate: CCO; test: PMS-mediated DCPIP reduction, Michaelis-Menten fit; format: biochemical, Methylorubrum extorquens

B1: XoxF1 MDH (XoxF1-La) (Methylorubrum extorquens AM1) (protein)
chain: NESVLKGVANPAEQVLQTVDYANTRYSKLDQINASNVKNLQVAWTFSTGVLRGHEGSPLVVGNIMYVHTPFPNIVYALDLDQGAKIVWKYEPKQDPSVIPVMCCDTVNRGLAYADGAILLHQADTTLVSLDAKSGKVNWSVKNGDPSKGETNTATVLPVKDKVIVGISGGEFGVQCHVTAYDLKSGKKVWRGYSIGPDDQLIVDPEKTTSLGKPIGKDSSLKTWEGDQWKTGGGCTWGWFSYDPKLDLMYYGSGNPSTWNPKQRPGDNKWSMTIWARNPDTGMAKWVYQMTPHDEWDFDGINEMILTDQKFDGKDRPLLTHFDRNGFGYTLDRATGEVLVAEKFDPVVNWATKVDLDKGSKTYGRPLVVSKYSTEQNGEDVNSKGICPAALGTKDQQPAAFSPKTGLFYVPTNHVCMDYEPFRVTYTPGQPYVGATLSMYPAPGSHGGMGNFIAWDNLQGKIKWSNPEQFSAWGGALATAGDVVFYGTLEGFLKAVDSKTGKELYKFKTPSGIIGNVMTYEHKGKQHVAVLSGVGGWAGIGLAAGLTDPNAGLGAVGGYAALSSYTNLGGQLTVFSLPNN
Work on B1 yielded a Km (purified protein) of 96 µM, a Km [1] of 44 µM and a Km [2] of 639 µM.
